Where two headings read alike, the source gives them in different places.
B1: RG6234 (bispecific antibody, human IgG1, kappa, L234A L235A)
heavy 1: EVQLVESGGGLVQPGRSLKLSCAASGFSFSNYGMAWVRQAATKGLEWVASISTGGGNTYYRDSVKGRFIVSRDNAKNTQYLQMDSLRSEDTATYYCTRHDRGGLYWGQGVMVTVSSASTKGPSVFPLAPSSKSTSGGTAALGCLVEDYFPEPVTVSWNSGALTSGVHTFPAVLQSSGLYSLSSVVTVPSSSLGTQTYICNVNHKPSNTKVDEKVEPKSCDKTHTCPPCPAPEAAGGPSVFLFPPKPKDTLMISRTPEVTCVVVDVSHEDPEVKFNWYVDGVEVHNAKTKPREEQYNSTYRVVSVLTVLHQDWLNGKEYKCKVSNKALGAPIEKTISKAKGQPREPQVCTLPPSRDELTKNQVSLSCAVKGFYPSDIAVEWESNGQPENNYKTTPPVLDSDGSFFLVSKLTVDKSRWQQGNVFSCSVMHEALHNHYTQKSLSLSPGK
heavy 2: not shown
light 1: DIVMTQAPLSVSVTPGESASISCRSSKSLLHSNGITYVYWYFQKPGKSPQVLIYRMSNLASGVPDRFSGSGSETDFTLKISRVEAEDVGIYHCGQLLENPYTFGAGTELELKRTVAAPSVFIFPPSDRKLKSGTASVVCLLNNFYPREAKVQWKVDNALQSGNSQESVTEQDSKDSTYSLSSTLTLSKADYEKHKVYACEVTHQGLSSPVTKSFNRGEC
light 2: EVQLLESGGGLVQPGGSLRLSCAASGFTFSTYAMNWVRQAPGKGLEWVSRIRSKYNNYATYYADSVKGRFTISRDDSKNTLYLQMNSLRAEDTAVYYCVRHGNFGNSYVSWFAYWGQGTLVTVSSRTVAAPSVFIFPPSDEQLKSGTASVVCLLNNFYPREAKVQWKVDNALQSGNSQESVTEQDSKDSTYSLSSTLTLSKADYEKHKVYACEVTHQGLSSPVTKSFNRGEC
notes: construct per WO2019154890A1; also called benchmark antibody RG6234 (Roche)
B2: JNJ-64407564 (bispecific antibody, V domains shown)
VH 1: QVQLVQSGAEVKKPGASVKVSCKASGYSFTGYTMNWVRQAPGQGLEWMGLINPYNSDTNYAQKLQGRVTMTTDTSTSTAYMELRSLRSDDTAVYYCARVALRVALDYWGQGTLVTVSS
VL 1: DIQMTQSPSSLSASVGDRVTITCKASQNVATHVGWYQQKPGKAPKRLIYSASYRYSGVPSRFSGSGSGTEFTLTISNLQPEDFATYYCQQYNRYPYTFGQGTKLEIK
VH 2: EVQLVESGGGLVQPGGSLRLSCAASGFTFNTYAMNWVRQAPGKGLEWVARIRSKYNNYATYYAASVKGRFTISRDDSKNSLYLQMNSLKTEDTAVYYCARHGNFGNSYVSWFAYWGQGTLVTVSS
VL 2: QTVVTQEPSLTVSPGGTVTLTCRSSTGAVTTSNYANWVQQKPGQAPRGLIGGTNKRAPGTPARFSGSLLGGKAALTLSGVQPEDEAEYYCALWYSNLWVFGGGTKLTVL
notes: construct per WO2018017786A2; also called benchmark antibody
B3: ATG-Bis-40E9 (bispecific antibody)
heavy: EVQLQQSGPELVKPGASVKMSCKASGYTFTSYVIHWVKQKTGQGLEWIGYFNPYNDGTKYNEEFKGKATLTSDKSSNTAYMELNSLTSDDSAVYFCARGGVRRYFDVWGAGTTVTVSS
heavy (part 1 of 2): B3 heavy
heavy (part 2 of 2): GGGGSGGGGSEVQLQLSGPELVKPGASVKMSCKASGYTFSSYVIHWVKQKPGQGLEWIGYINPYNDVIKYNEKFKGKATLTSDKSSSTAYMELSSLTSEDSAVYYCARDSYYSYDGFAYWGQGTLVTVSAGGGGSGGGGSGGGGSGGGGSQIVLTQSPAIMSASPGEKVTMTCSASSSVSYMHWYQQKSGTSPKRWIYDTSKLASGVPARFSGSGSGTSYSLTISSMEAEDAATYYCQQWSSNPPTFGGGTKVEIKGGGGSGGGGS
light: DIQMTQSPSSLSASLGERVSLTCRASQDIGSNLNWLQQEPDGTIKRLIYATFGLDSGVPKRFSGSRSGSDYSLTISSLESEDFVDYYCQQYASFPYTFGGGTKLEIK
notes: Fab-scFv-Fab (2+1) format: two anti-GPRC5D Fabs, one anti-CD3 scFv; LALA (L234A, L235A, EU); also called chimeric 2+1 bispecific antibody; 108C4C12 Fab x 40-C12-C10-E9 scFv; not shown: CH1; CL; CH2-CH3 with L234A, L235A; heavy chain constant region with L234A, L235A
B4: Bis-108+147-S54R.H (bispecific antibody)
chain 1: EVQLVQSGAEVKKPGASVKVSCKASGYTFTSYVIHWVRQAPGQGLEWMGYFNPYNDGTKYNEEFKGRVTLTSDKSTSTAYMELRSLRSDDTAVYYCARGGVRRYFDVWGQGTTVTVSS
chain 2: EVQLVQSGAEVKKPGSSVKVSCKASGYTFTSYWMHWVRQAPGQCLEWMGNINPRSGATNYNEKFKSRVTLTVDKSTSTAYMELSSLRSEDTAVYYCARDRSSQYYFDYWGQGTTVTVSSGGGGSGGGGSGGGGSGGGGSDIVMTQSPDSLAVSLGERATINCKSSQSLLNSRSRKNYLAWYQQKPGQPPKLLIYWASTRESGVPDRFSGSGSGTDFTLTISSLQAEDVAVYYCTQSYTLRTFGCGTKVEIK
chain 3: DIQMTQSPSSLSASVGDRVTITCRASQDIGSNLNWLQQKPGKAIKRLIYATFGLDSGVPSRFSGSRSGTDFTLTISSLQPEDFATYYCQQYASFPYTFGGGTKVEIK

Tests used:
[1] = target: T1, GPRC5D (G-protein coupled receptor family C group 5 member D), human, on multiple myeloma cell lines (human, UniProt Q9NZD1 1-345); experiment: cell-based or functional assay
[2] = target: T2, CD3 (Cluster of Differentiation 3 protein), human, on T cells / Jurkat cells (human, UniProt P07766 23-207; P04234 22-171; P09693 23-182); experiment: FACS, CD3+ T cells isolated from normal donors
T2 construct: whole, on cells; part of the TCR-CD3 complex; also called human CD3
Method: To evaluate the binding affinity of the generated chimeric bispecific antibody to T cells, the isolated CD3⁺ T cells were stained by antibodies and the binding affinity was determined by FACS analysis. The protocol of FACS analysis is described as follows: [0785] (a) CD3⁺ T cells were isolated from normal donors. [0786] (b) The isolated CD3⁺ T cells were washed by Staining Buffer (PBS+1% BSA) in round bottom 96-well plate. […] (c) Antibody dilutions were added to each well and mixed with the CD3+ T cells, incubated at 4 degrees for 1 hour. […] (d) Cells were spined at 300 g for 3 minutes, then the supernatants were discarded. [0789] (e) Cells were washed with Staining Buffer. [0790] (f) Step (d) was repeated, and the cells were incubated with secondary antibody in Staining Buffer for 0.5 hours at 4 degrees. [0791] (g) After incubation, step (d)-(e) were repeated. [0792] (h) Cells were resuspended in Staining Buffer and fluorescence signals were recorded by flow cytometry.

[3] = target: T1, GPRC5D (G-protein coupled receptor …); experiment: cell-based or functional assay; remark: listed apart in the source
[4] = target: T1, GPRC5D (G-protein coupled receptor …); experiment: cell-based or functional assay; remark: listed apart in the source
[5] = target: T2, CD3 (Cluster of Differentiation 3 …); experiment: FACS, Jurkat cells, antibody at 50 µg/ml
Method: (§1) The binding affinities of the generated humanized Fab-scFv-Fab bispecific antibodies were determined by FACS analysis. […] (a) Jurkat cells were washed by Staining Buffer (PBS+1% BSA) in round bottom 96-well plate. [0833] (b) Antibody dilutions and cells were added to each well, incubated at 4 degrees for 1 hour. [0834] (c) Cells were spined down at 300 g for 3 minutes, and the supernatants were discarded. [0835] (d) Cells were washed with Staining Buffer. […] (e) Step (d) was repeated and the cells were incubated for 0.5 hours at 4 degrees with secondary antibody in Staining Buffer. [0837] (f) After incubation, step (d)-(e) were repeated. […] (g) Staining Buffer was added and fluorescence signals were recorded by flow cytometry.

[6] = target: T1, GPRC5D (G-protein coupled receptor …); experiment: cell-based or functional assay; remark: listed apart in the source
[7] = target: T1, GPRC5D (G-protein coupled receptor …); experiment: FACS, MOLP-8 cells
Method: as §1
(§2) The binding affinities of the generated humanized Fab-scFv-Fab bispecific antibodies to different multiple myeloma cell lines were evaluated by FACS analysis. The protocol for FACS analysis is identical to that described in Example 3.2, except that different cells were used in this example, i.e., multiple myeloma cell lines (MM.1S, […], L363 and RPMI 8226) were used in this example.

[8] = target: T1, GPRC5D (G-protein coupled receptor …); experiment: FACS, MM.1S cells
Method: as §1, §2

GPRC5D on MM.1S cells [9] = target: T3, GPRC5D on MM.1S cells (human, UniProt Q9NZD1 1-345); experiment: cell-based or functional assay
GPRC5D on MM.1S cells [10] = target: T3, GPRC5D on MM.1S cells; experiment: cell-based or functional assay; remark: listed apart in the source
GPRC5D on MM.1S cells [11] = target: T3, GPRC5D on MM.1S cells; experiment: FACS on MM.1S cells
Method: as §1
The binding affinities of the generated humanized Fab-scFv-Fab bispecific antibodies were determined by FACS analysis. The ATG-Bis-40E9 was used as positive control and hIgG1 isotype was used as negative control. The protocol for FACS analysis is identical to that described in Example 3.2, except that MM.1S cells were used in this example.

CD3 on Jurkat cells = target: T4, CD3 on Jurkat cells (UniProt P07766 23-207; P04234 22-171; P09693 23-182); experiment: FACS on Jurkat cells
T4 construct: whole, on cells; On the cell, CD3 stands in the TCR-CD3 complex; also called cluster of differentiation 3
Method: as §1
The binding affinities of the generated humanized Fab-scFv-Fab bispecific antibodies were determined by FACS analysis. The ATG-Bis-40E9 described in Example 1 was used as positive control and hIgG1 isotype was used as negative control. The protocol for FACS analysis is described in Example 3.2 above.

T3 sequence (Q9NZD1 whole entry): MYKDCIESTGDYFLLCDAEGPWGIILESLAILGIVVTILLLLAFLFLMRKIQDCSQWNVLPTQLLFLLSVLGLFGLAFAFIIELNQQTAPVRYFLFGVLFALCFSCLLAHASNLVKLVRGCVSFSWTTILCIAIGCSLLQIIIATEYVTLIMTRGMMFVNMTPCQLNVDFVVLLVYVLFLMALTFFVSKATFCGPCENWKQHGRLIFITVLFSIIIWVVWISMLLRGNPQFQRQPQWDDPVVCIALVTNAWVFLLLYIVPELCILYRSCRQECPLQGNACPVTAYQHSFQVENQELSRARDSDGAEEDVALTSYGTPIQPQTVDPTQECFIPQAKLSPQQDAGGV
T1 sequence (Q9NZD1 whole entry): as above
T2 sequence (P07766 23-207, chain 1 of 3): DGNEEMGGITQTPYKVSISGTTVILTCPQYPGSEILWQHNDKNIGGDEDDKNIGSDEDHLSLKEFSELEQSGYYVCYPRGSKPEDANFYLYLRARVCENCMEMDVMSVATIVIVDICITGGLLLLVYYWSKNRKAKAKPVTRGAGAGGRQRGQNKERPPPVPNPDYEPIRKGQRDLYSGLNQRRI
T2 sequence (P04234 22-171, chain 2 of 3): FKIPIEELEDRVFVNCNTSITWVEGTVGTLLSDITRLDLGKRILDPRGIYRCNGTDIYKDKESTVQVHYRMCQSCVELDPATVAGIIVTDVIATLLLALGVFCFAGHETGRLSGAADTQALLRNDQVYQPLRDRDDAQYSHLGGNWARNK
T2 sequence (P09693 23-182, chain 3 of 3): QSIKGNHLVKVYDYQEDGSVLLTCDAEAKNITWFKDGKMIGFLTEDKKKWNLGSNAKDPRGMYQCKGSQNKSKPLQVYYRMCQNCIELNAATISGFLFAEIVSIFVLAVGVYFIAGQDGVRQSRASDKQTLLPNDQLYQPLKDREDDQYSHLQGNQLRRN
T4 sequence (P07766 23-207, chain 1 of 3): as the sequence (P07766 23-207, chain 1 of 3) above
T4 sequence (P04234 22-171, chain 2 of 3): as the sequence (P04234 22-171, chain 2 of 3) above
T4 sequence (P09693 23-182, chain 3 of 3): as the sequence (P09693 23-182, chain 3 of 3) above

Binder | EC50 (nM), luciferase assay, L363 [1] | EC50 (nM), luciferase assay, MM.1S [1] | EC50 (nM), luciferase assay, MOLP-8 [1] | EC50 (nM), luciferase assay, RPMI8226 [1] | Top (RLU), luciferase assay, L363 [1] | Top (RLU), luciferase assay, MM.1S [1] | Top (RLU), luciferase assay, MOLP-8 [1] | Top (RLU), luciferase assay, RPMI8226 [1] | EC50 [2] | Top (MFI) [2] | EC50 (nM), luciferase assay, L363 [3] | EC50 (nM), luciferase assay, MM.1S [3] | EC50 (nM), luciferase assay, MOLP-8 [3] | EC50 (nM), luciferase assay, RPMI8226 [3] | IC50 (nM), T-Cell Dependent Cytotoxicity, MM.1S [4] | IC50 (nM), T-Cell Dependent Cytotoxicity, MOLP-8 [4] | IC50 (nM), T-Cell Dependent Cytotoxicity, RPMI8226 [4] | Top (%), T-Cell Dependent Cytotoxicity, MM.1S [4] | Top (%), T-Cell Dependent Cytotoxicity, MOLP-8 [4] | MFI (50 µg/ml) [5] | further results
B1 | 0.0532 nM | 0.0397 nM | 0.021 nM | 0.0929 nM | 1260 RLU | 3910 RLU | 1060 RLU | 616 RLU | 274000 pM | 2550 MFI | 44 nM | 0.334 nM | 0.756 nM | 0.047 nM | 0.019 nM | 0.00599 nM | 0.0899 nM | 77.2% | 53.4% | 836 MFI | Top (%), T-Cell Dependent Cytotoxicity, RPMI8226 [4]: 8.1%; IC50 (nM), T-Cell Dependent Cytotoxicity, L363 [6]: 0.007 nM; IC50 (nM), T-Cell Dependent Cytotoxicity, MM.1S [6]: 0.006 nM; IC50 (nM), T-Cell Dependent Cytotoxicity, MOLP-8 [6]: 0.002 nM; IC50 (nM), T-Cell Dependent Cytotoxicity, RPMI8226 [6]: 0.031 nM
B2 | – | – | – | – | – | – | – | – | 11400 pM | 534 MFI | – | – | – | – | – | – | – | – | – | 1030 MFI | –
B3 | 0.028 nM | 0.787 nM | 0.0186 nM | 0.117 nM | 1050 RLU | 3550 RLU | 826 RLU | 776 RLU | 287000 pM | 1990 MFI | 69.4 nM | 0.739 nM | 0.374 nM | 0.071 nM | 0.00641 nM | 0.00607 nM | 0.0351 nM | 81.5% | 59% | 490 MFI | EC50 [7]: 817 pM; Top (MFI) [7]: 958 MFI; EC50 [8]: 11300 pM; Top (MFI) [8]: 1200 MFI; Top (%), T-Cell Dependent Cytotoxicity, RPMI8226 [4]: 9%; IC50 (nM), T-Cell Dependent Cytotoxicity, L363 [6]: 0.001 nM; IC50 (nM), T-Cell Dependent Cytotoxicity, MM.1S [6]: 0.002 nM; IC50 (nM), T-Cell Dependent Cytotoxicity, MOLP-8 [6]: 0.001 nM; IC50 (nM), T-Cell Dependent Cytotoxicity, RPMI8226 [6]: 0.009 nM
B4 | – | – | – | – | – | – | – | – | – | – | – | – | – | – | – | – | – | – | – | – | EC50, Jurkat-NFAT-Luciferase assay in the presence of MM.1S cells (GPRC5D on MM.1S cells [9]): 240 pM; Top RLU, Jurkat-NFAT-Luciferase assay in the presence of MM.1S cells (GPRC5D on MM.1S cells [9]): 362 RLU; IC50 of T-cell dependent cytotoxicity on MM.1S cells (GPRC5D on MM.1S cells [10]): 1250 pM; Top (%) target cell killing, MM.1S cells (GPRC5D on MM.1S cells [10]): 110%; EC50 (GPRC5D on MM.1S cells [11]): 3700 pM; Top signal (GPRC5D on MM.1S cells [11]): 2620 MFI; Top signal (CD3 on Jurkat cells): 293 MFI

From patent US20260193348A1 (ANTENGENE BIOLOGICS, published 2026)
